The record followed here is patent publication US20030157108A1.

Assay [1] has as its target human FcγRIIIA(Phe158) full-length α-chain co-expressed with γ-chain on CHO cells (human) (UniProt P08637). The experiment in a line: cell-based assay, Hu4D5 monomers on CHO cells transfected with FcγRIIIA α-chain and γ-chain (by text and FIG. 28; footnote letters shifted); standard = CHO-S.
Assay [2] has the same target. As to the kind of experiment: cell-based assay, Hu4D5 monomers on CHO cells transfected with FcγRIIIA α-chain and γ-chain (by text and FIG. 28; footnote letters shifted); standard = CHO-S; average of lots.
Assay [3] addresses human FcγRIIIA(F158) (human) (UniProt P08637). As to the kind of experiment: ELISA, Hu4D5 dimers at 1.11 µg/ml; standard = CHO-S; average of lots. (An ELISA detects its analyte on a solid surface through an enzyme-linked reagent.)
Assay [4] concerns the target human FcγRIIIA(V158) (human) (UniProt P08637). Described as above.
For assay [5] the target is unchanged. The experiment in a line: ELISA, Hu4D5 dimers; Table 2 prints 23.1 for the average.
The target in assay [6] is human FcγRIIIA(F158) (human) (UniProt P08637). As to the kind of experiment: ELISA, Hu4D5 dimers at 1.11 µg/ml; standard = CHO-S.
The target in assay [7] is human FcγRIIIA(V158) (human) (UniProt P08637). Described as above.
The target is the same in assay [8]. As to the kind of experiment: ELISA, E27 dimers at 0.12 µg/ml (by text and FIG. 10; footnote letters shifted); standard = HEK293.
The target in assay [9] is human FcγRIIIA(F158) (human) (UniProt P08637). The experiment in a line: ELISA, E27 dimers at 0.12 µg/ml (by text and FIG. 11; footnote letters shifted); standard = HEK293.
Assay [10] shares this target. As to the kind of experiment: ELISA, E27 hexamers (E27:IgE complexes) at 0.12 µg/ml (by text and FIG. 12; footnote letters shifted); standard = HEK293.
The target in assay [11] is human FcγRIIIA(V158) (human) (UniProt P08637). As to the kind of experiment: ELISA, E27 hexamers (E27:IgE complexes) at 0.12 µg/ml (by text and FIG. 13; footnote letters shifted); standard = HEK293.

Where “and” joins values, the source holds several entries; their conditions need not be identical. Equal values may be shown once.

human FcγRIIIA(F158) (human), sequence (P08637 17-208 limits assumed): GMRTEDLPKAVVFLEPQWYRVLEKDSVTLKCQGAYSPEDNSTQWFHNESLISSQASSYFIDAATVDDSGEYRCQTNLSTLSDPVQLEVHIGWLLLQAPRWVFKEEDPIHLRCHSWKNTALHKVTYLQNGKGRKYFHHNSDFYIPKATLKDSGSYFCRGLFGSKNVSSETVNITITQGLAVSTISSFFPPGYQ
human FcγRIIIA(Phe158) full-length α-chain co-expressed with γ-chain on CHO cells (human), sequence (P08637 17-254, chain 1 of 2): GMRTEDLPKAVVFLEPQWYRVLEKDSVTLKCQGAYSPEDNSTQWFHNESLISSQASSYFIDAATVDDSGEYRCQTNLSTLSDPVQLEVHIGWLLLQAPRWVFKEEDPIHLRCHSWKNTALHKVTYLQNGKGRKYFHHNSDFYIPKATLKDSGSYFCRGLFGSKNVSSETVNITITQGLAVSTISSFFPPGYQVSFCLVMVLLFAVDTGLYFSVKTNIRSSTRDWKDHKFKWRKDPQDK
human FcγRIIIA(Phe158) full-length α-chain co-expressed with γ-chain on CHO cells (human), sequence (P30273 19-86, chain 2 of 2, further chain): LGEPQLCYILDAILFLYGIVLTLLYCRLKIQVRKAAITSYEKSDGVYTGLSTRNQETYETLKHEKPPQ
human FcγRIIIA(V158) (human), sequence (P08637 17-208 F176V limits assumed): as the sequence (P08637 17-208 limits assumed) above, with F160V counted along it

Turning to “Hu4D5 with S298A/E333A/K334A substitutions in the Fc region, expressed in Lec13 cells (fucose-deficient) (antibody)”, the ratio variant/standard in [1] was 26.8 and 25.9; in [2] it was 26.4. For the same substance, the ratio A(variant)/A(standard) at A490nm is 33.5 in assay [3]; 23.1 in assay [4]; 32.8 and 32.9 and 34.8 in assay [6]; 25.4 and 23.8 and 22.5 in assay [7]. The fold improvement in binding in assay [5] was determined as 21 fold.

For the substance “Hu4D5 with S298A/E333A/K334A substitutions in the Fc region, expressed in HEK293 cells (antibody)”, in [6], the ratio A(variant)/A(standard) at A490nm was found to be 20.8.

Consider “anti-IgE antibody E27 expressed in CHO-DP12 cells on plates (CHO-P)”, for which the ratio A(variant)/A(standard) at A490nm in assay [8] was 0.32; in assay [9], 0.35; in assay [10] it was 0.65.

With “anti-IgE antibody E27 expressed in Lec13 cells (fucose-deficient)”, the figures for the ratio A(variant)/A(standard) at A490nm in assay [8], in [9] and in [10] were 6.44, 7.63 and 1.92, respectively.

On to “E27 with S298A/E333A/K334A substitutions in the Fc region, expressed in HEK293 cells (antibody)”, for which the ratio A(variant)/A(standard) at A490nm in [10] came to 1.87; in assay [11] it was 1.15.
